Literature values as cited in paper PMC5538147.

Biological target: UvrD (Escherichia coli) (UniProt P03018)

Substance: UvrD (from UniProt P03018)
- Kd: 470 nM
